B1: GpH7-A5/GpH7-B3 variant P238_03V/GpL16-k0 (antibody, human IgG1, kappa)
heavy 1: not shown
heavy 2: not shown
light: DIVMTQSPLSLPVTPGEPASISCQASESLVHSNRNTYLHWYLQKPGQSPQLLIYKVSNRFSGVPDRFSGSGSGTDFTLKISRVEAEDVGVYYCSQNTHVPPTFGQGTKVEIERTVAAPSVFIFPPSDEQLKSGTASVVCLLNNFYPREAKVQWKVDNALQSGNSQESVTEQDSKDSTYSLSSTLTLSKADYEKHKVYACEVTHQGLSSPVTKSFNRGEC
notes: Heterodimerized anti-glypican-3 IgG1; alteration in the GpH7-B3 chain only; also called He Ab
B2: GpH7-A5/GpH7-B3 variant P238_19Q/GpL16-k0 (antibody, human IgG1, kappa)
heavy 1: not shown
heavy 2: not shown
light: B1 light
notes: as for B1
B3: GpH7-A5/GpH7-B3 variant G237_05P/GpL16-k0 (antibody, human IgG1, kappa)
heavy 1: not shown
heavy 2: not shown
light: B1 light
notes: as for B1
B4: GpH7-A5/GpH7-B3 variant P238_20W/GpL16-k0 (antibody, human IgG1, kappa)
heavy 1: not shown
heavy 2: not shown
light: B1 light
notes: as for B1
B5: GpH7-A5/GpH7-B3 variant G237_19Q/GpL16-k0 (antibody, human IgG1, kappa)
heavy 1: not shown
heavy 2: not shown
light: B1 light
notes: as for B1
B6: GpH7-A5/GpH7-B3 variant G237_15Y/GpL16-k0 (antibody, human IgG1, kappa)
heavy 1: not shown
heavy 2: not shown
light: B1 light
notes: as for B1
B7: GpH7-A5/GpH7-B3 variant G236_09D/GpL16-k0 (antibody, human IgG1, kappa)
heavy 1: not shown
heavy 2: not shown
light: B1 light
notes: as for B1
B8: GpH7-A5/GpH7-B3 variant G237_06M/GpL16-k0 (antibody, human IgG1, kappa)
heavy 1: not shown
heavy 2: not shown
light: B1 light
notes: as for B1
B9: GpH7-A5/GpH7-B3 variant S239_03V/GpL16-k0 (antibody, human IgG1, kappa)
heavy 1: not shown
heavy 2: not shown
light: B1 light
notes: as for B1
B10: GpH7-A5/GpH7-B3 variant P238_06M/GpL16-k0 (antibody, human IgG1, kappa)
heavy 1: not shown
heavy 2: not shown
light: B1 light
notes: as for B1
B11: GpH7-A5/GpH7-B3 variant G237_08L/GpL16-k0 (antibody, human IgG1, kappa)
heavy 1: not shown
heavy 2: not shown
light: B1 light
notes: as for B1
B12: GpH7-A5/GpH7-B3 variant G237_16H/GpL16-k0 (antibody, human IgG1, kappa)
heavy 1: not shown
heavy 2: not shown
light: B1 light
notes: as for B1
B13: GpH7-A5/GpH7-B3 variant P238_04F/GpL16-k0 (antibody, human IgG1, kappa)
heavy 1: not shown
heavy 2: not shown
light: B1 light
notes: as for B1
B14: GpH7-A5/GpH7-B3 variant G237_10E/GpL16-k0 (antibody, human IgG1, kappa)
heavy 1: not shown
heavy 2: not shown
light: B1 light
notes: as for B1
B15: GpH7-A5/GpH7-B3 variant P238_13S/GpL16-k0 (antibody, human IgG1, kappa)
heavy 1: not shown
heavy 2: not shown
light: B1 light
notes: as for B1
B16: GpH7-A5/GpH7-B3 variant P238_15Y/GpL16-k0 (antibody, human IgG1, kappa)
heavy 1: not shown
heavy 2: not shown
light: B1 light
notes: as for B1
B17: GpH7-A5/GpH7-B3 variant L234_09D/GpL16-k0 (antibody, human IgG1, kappa)
heavy 1: not shown
heavy 2: not shown
light: B1 light
notes: as for B1
B18: GpH7-A5/GpH7-B3 variant P238_14T/GpL16-k0 (antibody, human IgG1, kappa)
heavy 1: not shown
heavy 2: not shown
light: B1 light
notes: as for B1

The binders below were run against T1, FcγRIIb (human, UniProt P31994 43-217) (assay: SPR (Biacore), antibody captured, FcγR as analyte; relative to HeCon Ab).
T1 construct: extracellular domain; Soluble extracellular domain with C-terminal His tag, expressed in FreeStyle293 cells; also called FcgRIIb; 2b; not shown: C-terminal His tag
T1 sequence (looked up): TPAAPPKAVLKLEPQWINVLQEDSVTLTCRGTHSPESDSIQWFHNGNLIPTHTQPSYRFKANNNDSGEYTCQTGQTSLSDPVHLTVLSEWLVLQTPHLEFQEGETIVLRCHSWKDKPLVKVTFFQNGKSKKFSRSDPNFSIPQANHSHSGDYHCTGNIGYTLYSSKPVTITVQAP
Procedure: (§1) The heterodimerized antibodies He Abs in which one of the H chains was introduced with an alteration were assayed for their binding activities to each activating FcγR and inhibitory FcγR according to the method described in Example 4. […] The activating FcγRs in FIGS. 26, 27, 28, and 29 are FcγRIa, FcγRIIa (R), FcγRIIa (H), and FcγRIIIa, respectively.
(§2) Analysis of interaction between objective antibody and the FcγR was carried out using Biacore T100 (GE Healthcare). HBS-EP+ (GE Healthcare) was used as the running buffer, and the measurement temperature was set to 25° C. Chips produced by immobilizing the antigen peptide by the amine coupling method to a Series S Sencor Chip CM5 (GE Healthcare), or alternatively, chips produced by allowing preliminarily biotinylated antigen peptides to interact with and immobilize onto a Series S Sensor Chip SA (certified) (GE Healthcare) were used. Antibodies of interest were captured onto an antigen peptide-immobilized chip, and allowed to interact to each FcγR diluted with running buffer. To regenerate and repeatedly use the chip, the antibodies captured on the chip were washed off by reacting 10 mM glycine-HCl, pH 1.5.

Row | Binder | He/Con_2b
1 | B1 | 120 % of GpH7-A5/GpH7-B3/GpL16-k0 (=100)
2 | B2 | 110 % of GpH7-A5/GpH7-B3/GpL16-k0 (=100)
3 | B3 | 24.6 % of GpH7-A5/GpH7-B3/GpL16-k0 (=100)
4 | B4 | 123 % of GpH7-A5/GpH7-B3/GpL16-k0 (=100)
5 | B5 | 108 % of GpH7-A5/GpH7-B3/GpL16-k0 (=100)
6 | B6 | 152 % of GpH7-A5/GpH7-B3/GpL16-k0 (=100)
7 | B7 | 167 % of GpH7-A5/GpH7-B3/GpL16-k0 (=100)
8 | B8 | 130 % of GpH7-A5/GpH7-B3/GpL16-k0 (=100)
9 | B9 | 108 % of GpH7-A5/GpH7-B3/GpL16-k0 (=100)
10 | B10 | 174 % of GpH7-A5/GpH7-B3/GpL16-k0 (=100)
11 | B11 | 148 % of GpH7-A5/GpH7-B3/GpL16-k0 (=100)
12 | B12 | 55.2 % of GpH7-A5/GpH7-B3/GpL16-k0 (=100)
13 | B13 | 312 % of GpH7-A5/GpH7-B3/GpL16-k0 (=100)
14 | B14 | 114 % of GpH7-A5/GpH7-B3/GpL16-k0 (=100)
15 | B15 | 70.4 % of GpH7-A5/GpH7-B3/GpL16-k0 (=100)
16 | B16 | 218 % of GpH7-A5/GpH7-B3/GpL16-k0 (=100)
17 | B17 | 150 % of GpH7-A5/GpH7-B3/GpL16-k0 (=100)
18 | B18 | 50.7 % of GpH7-A5/GpH7-B3/GpL16-k0 (=100)

The binders below were run against T2, FcγRIIa H (human, UniProt P12318 34-217) in the same assay as above.
T2 construct: extracellular domain; Soluble extracellular domain with C-terminal His tag, expressed in FreeStyle293 cells; also called FcgRIIa H; 2aH; not shown: C-terminal His tag
T2 sequence (looked up): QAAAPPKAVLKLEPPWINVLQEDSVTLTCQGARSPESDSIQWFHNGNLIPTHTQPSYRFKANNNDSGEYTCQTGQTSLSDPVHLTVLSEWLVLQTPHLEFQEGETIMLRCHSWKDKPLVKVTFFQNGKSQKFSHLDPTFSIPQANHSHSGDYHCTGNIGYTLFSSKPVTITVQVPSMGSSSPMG
Procedure: as §1, §2

Row | Binder | He/Con_2aH
19 | B1 | 89 % of GpH7-A5/GpH7-B3/GpL16-k0 (=100)
20 | B2 | 56.4 % of GpH7-A5/GpH7-B3/GpL16-k0 (=100)
21 | B4 | 59.5 % of GpH7-A5/GpH7-B3/GpL16-k0 (=100)
22 | B5 | 26.5 % of GpH7-A5/GpH7-B3/GpL16-k0 (=100)
23 | B6 | 25.4 % of GpH7-A5/GpH7-B3/GpL16-k0 (=100)
24 | B7 | 89.8 % of GpH7-A5/GpH7-B3/GpL16-k0 (=100)
25 | B8 | 17.8 % of GpH7-A5/GpH7-B3/GpL16-k0 (=100)
26 | B9 | 91 % of GpH7-A5/GpH7-B3/GpL16-k0 (=100)
27 | B10 | 47.6 % of GpH7-A5/GpH7-B3/GpL16-k0 (=100)
28 | B11 | 13.9 % of GpH7-A5/GpH7-B3/GpL16-k0 (=100)
29 | B12 | 16.4 % of GpH7-A5/GpH7-B3/GpL16-k0 (=100)
30 | B13 | 65.4 % of GpH7-A5/GpH7-B3/GpL16-k0 (=100)
31 | B14 | 15.1 % of GpH7-A5/GpH7-B3/GpL16-k0 (=100)
32 | B15 | 50.9 % of GpH7-A5/GpH7-B3/GpL16-k0 (=100)
33 | B16 | 59.8 % of GpH7-A5/GpH7-B3/GpL16-k0 (=100)
34 | B17 | 89.9 % of GpH7-A5/GpH7-B3/GpL16-k0 (=100)
35 | B18 | 37.7 % of GpH7-A5/GpH7-B3/GpL16-k0 (=100)

— patent publication US20180155451A1 (published 2018)
